Patent publication US20140274782A1, “AFFINITY REAGENTS AND METHODS FOR DETECTION, PURIFICATION, AND PROTEOMIC ANALYSIS OF METHYLATED PROTEINS” (The Board of Trustees of the Leland Stanford Junior …, priority 2013, published 2014)

T1: G9a and GLP (Homo sapiens, UniProt Q96KQ7+Q9H9B1)
T1 sequence (Q96KQ7 2-1210 limits assumed): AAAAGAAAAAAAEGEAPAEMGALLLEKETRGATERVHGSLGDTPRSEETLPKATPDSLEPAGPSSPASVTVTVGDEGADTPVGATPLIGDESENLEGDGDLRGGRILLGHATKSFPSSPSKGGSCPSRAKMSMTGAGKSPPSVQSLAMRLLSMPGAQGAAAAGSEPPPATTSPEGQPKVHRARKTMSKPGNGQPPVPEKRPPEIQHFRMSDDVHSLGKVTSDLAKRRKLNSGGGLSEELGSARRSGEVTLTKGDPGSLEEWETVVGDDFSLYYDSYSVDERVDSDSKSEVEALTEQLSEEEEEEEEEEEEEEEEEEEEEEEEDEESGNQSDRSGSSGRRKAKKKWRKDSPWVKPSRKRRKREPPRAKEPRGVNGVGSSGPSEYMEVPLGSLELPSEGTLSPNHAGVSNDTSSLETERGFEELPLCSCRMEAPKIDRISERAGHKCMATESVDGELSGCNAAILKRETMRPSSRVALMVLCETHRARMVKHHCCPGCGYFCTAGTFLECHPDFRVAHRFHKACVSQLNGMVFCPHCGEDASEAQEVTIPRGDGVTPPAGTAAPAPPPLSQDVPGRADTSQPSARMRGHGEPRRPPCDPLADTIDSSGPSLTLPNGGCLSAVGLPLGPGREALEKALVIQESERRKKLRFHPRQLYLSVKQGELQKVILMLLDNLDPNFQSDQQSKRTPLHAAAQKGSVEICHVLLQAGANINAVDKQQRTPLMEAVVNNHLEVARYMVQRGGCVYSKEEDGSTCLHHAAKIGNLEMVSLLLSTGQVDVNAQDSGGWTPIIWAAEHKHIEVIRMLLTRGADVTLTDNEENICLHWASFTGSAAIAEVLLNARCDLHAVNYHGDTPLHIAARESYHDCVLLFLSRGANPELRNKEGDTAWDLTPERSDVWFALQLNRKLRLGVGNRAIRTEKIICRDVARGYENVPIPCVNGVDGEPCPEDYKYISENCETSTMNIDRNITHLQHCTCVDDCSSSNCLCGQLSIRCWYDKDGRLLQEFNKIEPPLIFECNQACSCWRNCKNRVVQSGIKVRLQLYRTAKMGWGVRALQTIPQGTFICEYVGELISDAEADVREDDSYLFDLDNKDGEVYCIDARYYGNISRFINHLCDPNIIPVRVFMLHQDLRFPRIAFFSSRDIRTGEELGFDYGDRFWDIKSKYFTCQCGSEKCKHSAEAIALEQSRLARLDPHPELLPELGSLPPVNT
T1 sequence (Q9H9B1 2-1298 limits assumed): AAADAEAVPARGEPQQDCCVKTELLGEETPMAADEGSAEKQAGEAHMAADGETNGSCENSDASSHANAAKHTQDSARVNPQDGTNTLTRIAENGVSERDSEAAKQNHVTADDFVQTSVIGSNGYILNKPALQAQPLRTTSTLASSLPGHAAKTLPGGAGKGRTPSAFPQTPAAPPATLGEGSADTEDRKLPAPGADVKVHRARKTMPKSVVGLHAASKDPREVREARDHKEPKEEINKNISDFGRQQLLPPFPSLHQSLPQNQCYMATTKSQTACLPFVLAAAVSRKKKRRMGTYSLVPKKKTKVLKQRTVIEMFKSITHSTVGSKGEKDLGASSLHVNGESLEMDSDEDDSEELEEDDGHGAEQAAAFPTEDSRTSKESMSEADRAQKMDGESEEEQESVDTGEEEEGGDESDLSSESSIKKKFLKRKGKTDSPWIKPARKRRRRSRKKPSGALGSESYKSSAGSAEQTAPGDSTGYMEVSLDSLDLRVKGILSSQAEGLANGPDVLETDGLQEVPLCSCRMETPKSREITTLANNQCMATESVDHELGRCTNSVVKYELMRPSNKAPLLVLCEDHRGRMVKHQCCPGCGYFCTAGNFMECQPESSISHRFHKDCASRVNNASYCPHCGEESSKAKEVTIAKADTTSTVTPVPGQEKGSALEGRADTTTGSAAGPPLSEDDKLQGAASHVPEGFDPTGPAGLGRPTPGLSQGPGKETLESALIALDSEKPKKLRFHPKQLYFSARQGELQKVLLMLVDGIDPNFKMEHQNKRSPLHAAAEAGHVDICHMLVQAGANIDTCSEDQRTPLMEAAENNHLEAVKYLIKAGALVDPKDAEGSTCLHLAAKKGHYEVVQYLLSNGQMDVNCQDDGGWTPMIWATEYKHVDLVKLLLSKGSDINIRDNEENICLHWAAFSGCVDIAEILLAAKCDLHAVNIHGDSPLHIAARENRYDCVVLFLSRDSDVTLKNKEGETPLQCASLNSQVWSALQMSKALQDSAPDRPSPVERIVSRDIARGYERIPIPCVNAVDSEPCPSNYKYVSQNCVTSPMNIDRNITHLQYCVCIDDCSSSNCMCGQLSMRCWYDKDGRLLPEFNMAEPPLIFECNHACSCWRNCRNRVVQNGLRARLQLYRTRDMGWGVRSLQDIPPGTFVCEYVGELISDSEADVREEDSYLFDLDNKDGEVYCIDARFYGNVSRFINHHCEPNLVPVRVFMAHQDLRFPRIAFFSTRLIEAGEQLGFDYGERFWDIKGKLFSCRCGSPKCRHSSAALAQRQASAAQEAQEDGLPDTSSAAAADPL

B1: PDCD2L (protein, UniProt Q9BRP1 2-358, looked up)
Programmed cell death protein …: AAVLKPVLLGLRDAPVHGSPTGPGAWTASKLGGIPDALPTVAAPRPVCQRCGQPLALVVQVYCPLEGSPFHRLLHVFACACPGCSTGGARSWKVFRSQCLQVPEREAQDAQKQGNSLAAEDWCEGADDWGSDTEEGPSPQFTLDFGNDASSAKDVDWTARLQDLRLQDAVLGAAHPVPPGLPLFLPYYICVADEDDYRDFVNLDHAHSLLRDYQQREGIAMDQLLSQSLPNDGDEKYEKTIIKSGDQTFYKFMKRIAACQEQILRYSWSGEPLFLTCPTSEVTELPACSQCGGQRIFEFQLMPALVSMLKSANLGLSVEFGTILVYTCEKSCWPPNHQTPMEEFCIIQEDPDELLFK
B2: PRDX6 (protein, UniProt P30041 2-224, looked up)
Peroxiredoxin-6: PGGLLLGDVAPNFEANTTVGRIRFHDFLGDSWGILFSHPRDFTPVCTTELGRAAKLAPEFAKRNVKLIALSIDSVEDHLAWSKDINAYNCEEPTEKLPFPIIDDRNRELAILLGMLDPAEKDEKGMPVTARVVFVFGPDKKLKLSILYPATTGRNFDEILRVVISLQLTAEKRVATPVDWKDGDSVMVLPTIPEEEAKKLFPKGVFTKELPSGKKYLRYTPQP
B3: CACYBP (protein, UniProt Q9HB71 2-228, looked up)
Calcyclin-binding protein: ASEELQKDLEEVKVLLEKATRKRVRDALTAEKSKIETEIKNKMQQKSQKKAELLDNEKPAAVVAPITTGYTVKISNYGWDQSDKFVKIYITLTGVHQVPTENVQVHFTERSFDLLVKNLNGKSYSMIVNNLLKPISVEGSSKKVKTDTVLILCRKKVENTRWDYLTQVEKECKEKEKPSYDTETDPSEGLMNVLKKIYEDGDDDMKRTINKAWVESREKQAKGDTEF
B4: U2SURP (protein, UniProt O15042 2-1029, looked up)
U2 snRNP-associated SURP …: ADKTPGGSQKASSKTRSSDVHSSGSSDAHMDASGPSDSDMPSRTRPKSPRKHNYRNESARESLCDSPHQNLSRPLLENKLKAFSIGKMSTAKRTLSKKEQEELKKKEDEKAAAEIYEEFLAAFEGSDGNKVKTFVRGGVVNAAKEEHETDEKRGKIYKPSSRFADQKNPPNQSSNERPPSLLVIETKKPPLKKGEKEKKKSNLELFKEELKQIQEERDERHKTKGRLSRFEPPQSDSDGQRRSMDAPSRRNRSSGVLDDYAPGSHDVGDPSTTNLYLGNINPQMNEEMLCQEFGRFGPLASVKIMWPRTDEERARERNCGFVAFMNRRDAERALKNLNGKMIMSFEMKLGWGKAVPIPPHPIYIPPSMMEHTLPPPPSGLPFNAQPRERLKNPNAPMLPPPKNKEDFEKTLSQAIVKVVIPTERNLLALIHRMIEFVVREGPMFEAMIMNREINNPMFRFLFENQTPAHVYYRWKLYSILQGDSPTKWRTEDFRMFKNGSFWRPPPLNPYLHGMSEEQETEAFVEEPSKKGALKEEQRDKLEEILRGLTPRKNDIGDAMVFCLNNAEAAEEIVDCITESLSILKTPLPKKIARLYLVSDVLYNSSAKVANASYYRKFFETKLCQIFSDLNATYRTIQGHLQSENFKQRVMTCFRAWEDWAIYPEPFLIKLQNIFLGLVNIIEEKETEDVPDDLDGAPIEEELDGAPLEDVDGIPIDATPIDDLDGVPIKSLDDDLDGVPLDATEDSKKNEPIFKVAPSKWEAVDESELEAQAVTTSKWELFDQHEESEEEENQNQEEESEDEEDTQSSKSEEHHLYSNPIKEEMTESKFSKYSEMSEEKRAKLREIELKVMKFQDELESGKRPKKPGQSFQEQVEHYRDKLLQREKEKELERERERDKKDKEKLESRSKDKKEKDECTPTRKERKRRHSTSPSPSRSSSGRRVKSPSPKSERSERSERSHKESSRSRSSHKDSPRDVSKKAKRSPSGSRTPKRSRRSRSRSPKKSGKKSRSQSRSPHRSHKKSKKNKH

Each molecule was assayed on 3×MBT domain of L3MBTL1 (assay: Triple SILAC pull-down, 3xMBT/3xMBTD355N ratio (cytoplasmic, nuclear and chromatin fractions of 293T cells)). Settings: SILAC ratio, pull-down 3xMBT vs 3xMBTD355N; experiment with UNC0638 in heavy SILAC media.
Format: binding, human
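Throughout, for 3xMBT/D355N UNC Heavy: proteins quantified with MaxQuant, requiring at least two unique peptides and quantification in both label directions, normalized to the mean of proteins from a digested loading control.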
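Throughout, for 3xMBT/D355N UNC Light: proteins quantified with MaxQuant, requiring at least two unique peptides and quantification in both label directions, normalized to the mean of proteins from a digested loading control.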
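Throughout, for Relative to UNC0638 Average: mass spectrometry (Q-Exactive) SILAC quantitation, DMSO/UNC0638 ratio computed after subtracting 3×MBTD355N mutant pull-down background, only proteins with at least twofold 3×MBT over mutant signal considered.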
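Throughout, for Relative to UNC0638 UNC Heavy: mass spectrometry (Q-Exactive) SILAC quantitation, DMSO/UNC0638 ratio computed after subtracting 3×MBTD355N mutant pull-down background, only proteins with at least twofold 3×MBT over mutant signal considered.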
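Throughout, for Relative to UNC0638 UNC Light: mass spectrometry (Q-Exactive) SILAC quantitation, DMSO/UNC0638 ratio computed after subtracting 3×MBTD355N mutant pull-down background, only proteins with at least twofold 3×MBT over mutant signal considered.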

Molecule | 3xMBT/D355N UNC Heavy [log base 2]
B1 | 2.68
B2 | 2.01
B3 | 1.46
B4 | 3.19

Same assay, conditions: SILAC ratio, pull-down 3xMBT vs 3xMBTD355N; experiment with UNC0638 in light SILAC media

Molecule | 3xMBT/D355N UNC Light [log base 2]
B1 | 3.19
B2 | 2.00
B3 | 1.48
B4 | 2.58

What follows are molecules tested against T1, G9a and GLP (assay: Triple SILAC pull-down after UNC0638 treatment of 293T cells, DMSO/UNC0638 ratio of protein captured by 3×MBT). Settings: SILAC ratio DMSO/UNC0638 of protein pulled down with 3xMBT; UNC0638 in heavy SILAC media.
Format: cell-based
Design: cells were treated for 24 hours with UNC0638 at 2.5 μM or DMSO vehicle control; endogenous in cells; host or cells: HEK 293T

Molecule | Relative to UNC0638 UNC Heavy [log base 2]
B1 | 0.22
B2 | 0.27
B3 | 0.29
B4 | 0.23

Same assay, conditions: SILAC ratio DMSO/UNC0638 of protein pulled down with 3xMBT; UNC0638 in light SILAC media

Molecule | Relative to UNC0638 UNC Light [log base 2]
B1 | 0.28
B2 | 0.23
B3 | 0.20
B4 | 0.27

Same assay, conditions: average of UNC Light and UNC Heavy experiments

Molecule | Relative to UNC0638 Average [log base 2]
B1 | 0.25
B2 | 0.25
B3 | 0.25
B4 | 0.25
